From the supplement of paper PMC6755084

The sequences below were run on F1*sub RNA substrate (template-directed ligation) (assay: fraction ligated after 30 min (ligated reads / total reads); higher = more ligase activity; sequences stand for … in GAGACCGCAACTGAAAAGTTGT…AGTTCTGCACGTAGAAGCAAAAGGC). Settings: 42 °C.
Method in brief: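 Oligo-pool templates underwent PCR amplification, T7 transcription and gel purification to yield ribozyme variants. Gel-separated ligated and unligated bands were converted to complementary DNA with barcoded primers and sequenced on a MiSeq, keeping core bases of quality ≥20. The ratio of ligated reads to total reads gave the fraction ligated for every variant.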

Going from TACCTTGTCGTAAGACACTTTGGATGGGTTG [3d546] to TACCTTGTCGTAAGACACTTTGGATGGGTTGA [2d48], the fraction ligated rises from 0.719 to 0.772.

First: TACCTTGTCGTAAGACACTTTGGATGGTTGA [3d544]
Second: TACCTTGTCGTAAGACACTTTGGTGGGTTGA [3d542]
The fraction ligated of the first is lower: 0.233 for the first, 0.744 for the second.

Going from TACCTTGTCGTAAGACATTTGGATGGGTTGA [3d539] to TACCTTGTCGTAAGACCTTTGGATGGGTTGA [3d538], the fraction ligated falls from 0.749 to 0.734.

Going from TACCTTGTCGTAAGCACTTTGGATGGGTTGA [3d536] to TACCTTGTCGTAGACACTTTGGATGGGTTGA [3d534], the fraction ligated rises from 0.668 to 0.697.

Compared with TACCTTGTCTAAGACACTTTGGATGGGTTGA [3d532], TACCTTGTGTAAGACACTTTGGATGGGTTGA [3d531] is higher in fraction ligated: 0.685 for the first, 0.795 for the second.

First: TACCTTTCGTAAGACACTTTGGATGGGTTGA [3d529]
Second: TACTTGTCGTAAGACACTTTGGATGGGTTGA [3d2]
The fraction ligated of the first is lower: 0.435 for the first, 0.486 for the second.

First: TATACGTCGTAAGACACTTTGGATGGGTTGA [3d777]
Second: TATACTGCGTAAGACACTTTGGATGGGTTGA [3d779]
The fraction ligated of the first is lower: 0.735 for the first, 0.779 for the second.

Going from TATACTGTCGAAGACACTTTGGATGGGTTGA [3d782] to TATACTGTCGTAAACACTTTGGATGGGTTGA [3d784], the fraction ligated rises from 0.71 to 0.721.

First: TATACTGTCGTAAGAACTTTGGATGGGTTGA [3d786]
Second: TATACTGTCGTAAGACACTTGGATGGGTTGA [3d789]
The fraction ligated of the first is higher: 0.809 for the first, 0.803 for the second.

Compared with TATACTGTCGTAAGACACTTTGATGGGTTGA [3d790], TATACTGTCGTAAGACACTTTGGAGGGTTGA [3d792] is lower in fraction ligated: 0.743 for the first, 0.042 for the second.

First: TATACTGTCGTAAGACACTTTGGATGGGTTA [3d794]
Second: TATACTGTCGTAAGACACTTTGGATGGGTTG [3d795]
The fraction ligated of the first is lower: 0.0511 for the first, 0.683 for the second.

Going from TATACTGTCGTAAGACACTTTGGATGGGTTGA [2d71] to TATACTGTCGTAAGACACTTTGGATGGTTGA [3d793], the fraction ligated falls from 0.797 to 0.132.

Going from TATACTGTCGTAAGACACTTTGGTGGGTTGA [3d791] to TATACTGTCGTAAGACATTTGGATGGGTTGA [3d788], the fraction ligated rises from 0.0244 to 0.756.

Compared with TATACTGTCGTAAGACCTTTGGATGGGTTGA [3d787], TATACTGTCGTAAGCACTTTGGATGGGTTGA [3d785] is lower in fraction ligated: 0.765 for the first, 0.759 for the second.

Going from TATACTGTCGTAGACACTTTGGATGGGTTGA [3d783] to TATACTGTCTAAGACACTTTGGATGGGTTGA [3d781], the fraction ligated falls from 0.757 to 0.651.

First: TATACTGTGTAAGACACTTTGGATGGGTTGA [3d780]
Second: TATACTTCGTAAGACACTTTGGATGGGTTGA [3d778]
The fraction ligated of the first is higher: 0.8 for the first, 0.724 for the second.

Compared with TATACTTGCGAAGACACTTTGGATGGGTTGA [3d814], TATACTTGCGTAAACACTTTGGATGGGTTGA [3d816] is lower in fraction ligated: 0.649 for the first, 0.464 for the second.

Going from TATACTTGCGTAAGAACTTTGGATGGGTTGA [3d818] to TATACTTGCGTAAGACACTTGGATGGGTTGA [3d821], the fraction ligated falls from 0.768 to 0.485.

First: TATACTTGCGTAAGACACTTTGATGGGTTGA [3d822]
Second: TATACTTGCGTAAGACACTTTGGAGGGTTGA [3d824]
The fraction ligated of the first is higher: 0.285 for the first, 0.0191 for the second.

Going from TATACTTGCGTAAGACACTTTGGATGGGTTA [3d826] to TATACTTGCGTAAGACACTTTGGATGGGTTG [3d827], the fraction ligated rises from 0.0217 to 0.272.

First: TATACTTGCGTAAGACACTTTGGATGGGTTGA [2d73]
Second: TATACTTGCGTAAGACACTTTGGATGGTTGA [3d825]
The fraction ligated of the first is higher: 0.703 for the first, 0.0234 for the second.

Going from TATACTTGCGTAAGACACTTTGGTGGGTTGA [3d823] to TATACTTGCGTAAGACATTTGGATGGGTTGA [3d820], the fraction ligated rises from 0.014 to 0.722.

Going from TATACTTGCGTAAGACCTTTGGATGGGTTGA [3d819] to TATACTTGCGTAAGCACTTTGGATGGGTTGA [3d817], the fraction ligated rises from 0.629 to 0.739.

Compared with TATACTTGCGTAGACACTTTGGATGGGTTGA [3d815], TATACTTGCTAAGACACTTTGGATGGGTTGA [3d813] is higher in fraction ligated: 0.435 for the first, 0.669 for the second.

Compared with TATACTTGGTAAGACACTTTGGATGGGTTGA [3d812], TATACTTGTCAAGACACTTTGGATGGGTTGA [3d843] is higher in fraction ligated: 0.653 for the first, 0.705 for the second.

Going from TATACTTGTCGAAACACTTTGGATGGGTTGA [3d858] to TATACTTGTCGAAGAACTTTGGATGGGTTGA [3d860], the fraction ligated falls from 0.756 to 0.748.

First: TATACTTGTCGAAGACACTTGGATGGGTTGA [3d863]
Second: TATACTTGTCGAAGACACTTTGATGGGTTGA [3d864]
The fraction ligated of the first is lower: 0.743 for the first, 0.755 for the second.

Compared with TATACTTGTCGAAGACACTTTGGAGGGTTGA [3d866], TATACTTGTCGAAGACACTTTGGATGGGTTA [3d868] is higher in fraction ligated: 0.0186 for the first, 0.0412 for the second.

Going from TATACTTGTCGAAGACACTTTGGATGGGTTG [3d869] to TATACTTGTCGAAGACACTTTGGATGGGTTGA [2d76], the fraction ligated rises from 0.61 to 0.761.

Going from TATACTTGTCGAAGACACTTTGGATGGTTGA [3d867] to TATACTTGTCGAAGACACTTTGGTGGGTTGA [3d865], the fraction ligated falls from 0.0528 to 0.0282.

Compared with TATACTTGTCGAAGACATTTGGATGGGTTGA [3d862], TATACTTGTCGAAGACCTTTGGATGGGTTGA [3d861] is lower in fraction ligated: 0.762 for the first, 0.478 for the second.

First: TATACTTGTCGAAGCACTTTGGATGGGTTGA [3d859]
Second: TATACTTGTCGAGACACTTTGGATGGGTTGA [3d857]
The fraction ligated of the first is lower: 0.703 for the first, 0.704 for the second.

Compared with TATACTTGTCGTAAAACTTTGGATGGGTTGA [3d883], TATACTTGTCGTAAACACTTGGATGGGTTGA [3d886] is lower in fraction ligated: 0.799 for the first, 0.227 for the second.

Going from TATACTTGTCGTAAACACTTTGATGGGTTGA [3d887] to TATACTTGTCGTAAACACTTTGGAGGGTTGA [3d889], the fraction ligated falls from 0.182 to 0.0111.

First: TATACTTGTCGTAAACACTTTGGATGGGTTA [3d891]
Second: TATACTTGTCGTAAACACTTTGGATGGGTTG [3d892]
The fraction ligated of the first is lower: 0.00216 for the first, 0.0953 for the second.

First: TATACTTGTCGTAAACACTTTGGATGGGTTGA [2d78]
Second: TATACTTGTCGTAAACACTTTGGATGGTTGA [3d890]
The fraction ligated of the first is higher: 0.493 for the first, 0.0192 for the second.

Compared with TATACTTGTCGTAAACACTTTGGTGGGTTGA [3d888], TATACTTGTCGTAAACATTTGGATGGGTTGA [3d885] is higher in fraction ligated: 0.019 for the first, 0.78 for the second.

Compared with TATACTTGTCGTAAACCTTTGGATGGGTTGA [3d884], TATACTTGTCGTAACACTTTGGATGGGTTGA [3d871] is lower in fraction ligated: 0.494 for the first, 0.27 for the second.

Going from TATACTTGTCGTAAGAACTTGGATGGGTTGA [3d904] to TATACTTGTCGTAAGAACTTTGATGGGTTGA [3d905], the fraction ligated rises from 0.717 to 0.794.

Compared with TATACTTGTCGTAAGAACTTTGGAGGGTTGA [3d907], TATACTTGTCGTAAGAACTTTGGATGGGTTA [3d909] is higher in fraction ligated: 0.032 for the first, 0.0459 for the second.

First: TATACTTGTCGTAAGAACTTTGGATGGGTTG [3d910]
Second: TATACTTGTCGTAAGAACTTTGGATGGGTTGA [2d80]
The fraction ligated of the first is lower: 0.724 for the first, 0.786 for the second.

Going from TATACTTGTCGTAAGAACTTTGGATGGTTGA [3d908] to TATACTTGTCGTAAGAACTTTGGTGGGTTGA [3d906], the fraction ligated falls from 0.0441 to 0.0323.

First: TATACTTGTCGTAAGAATTTGGATGGGTTGA [3d903]
Second: TATACTTGTCGTAAGACACTGGATGGGTTGA [3d925]
The fraction ligated of the first is higher: 0.769 for the first, 0.74 for the second.

Compared with TATACTTGTCGTAAGACACTTGATGGGTTGA [3d926], TATACTTGTCGTAAGACACTTGGAGGGTTGA [3d928] is lower in fraction ligated: 0.765 for the first, 0.0325 for the second.

Going from TATACTTGTCGTAAGACACTTGGATGGGTTA [3d930] to TATACTTGTCGTAAGACACTTGGATGGGTTG [3d931], the fraction ligated rises from 0.0948 to 0.756.

Compared with TATACTTGTCGTAAGACACTTGGATGGGTTGA [2d83], TATACTTGTCGTAAGACACTTGGATGGTTGA [3d929] is lower in fraction ligated: 0.785 for the first, 0.0929 for the second.

Going from TATACTTGTCGTAAGACACTTGGTGGGTTGA [3d927] to TATACTTGTCGTAAGACACTTTATGGGTTGA [3d932], the fraction ligated falls from 0.049 to 0.0481.

Going from TATACTTGTCGTAAGACACTTTGAGGGTTGA [3d934] to TATACTTGTCGTAAGACACTTTGATGGGTTA [3d936], the fraction ligated falls from 0.0304 to 0.0174.

First: TATACTTGTCGTAAGACACTTTGATGGGTTG [3d937]
Second: TATACTTGTCGTAAGACACTTTGATGGGTTGA [2d84]
The fraction ligated of the first is lower: 0.537 for the first, 0.794 for the second.

Going from TATACTTGTCGTAAGACACTTTGATGGTTGA [3d935] to TATACTTGTCGTAAGACACTTTGGAGGGTTA [3d943], the fraction ligated falls from 0.0546 to 0.00392.

First: TATACTTGTCGTAAGACACTTTGGAGGGTTG [3d944]
Second: TATACTTGTCGTAAGACACTTTGGAGGGTTGA [2d86]
The fraction ligated of the first is lower: 0.00819 for the first, 0.0419 for the second.

Compared with TATACTTGTCGTAAGACACTTTGGAGGTTGA [3d942], TATACTTGTCGTAAGACACTTTGGATGGGTT [3d947] is higher in fraction ligated: 0.00359 for the first, 0.00683 for the second.

First: TATACTTGTCGTAAGACACTTTGGATGGGTTA [2d88]
Second: TATACTTGTCGTAAGACACTTTGGATGGGTTG [2d89]
The fraction ligated of the first is lower: 0.0592 for the first, 0.733 for the second.

First: TATACTTGTCGTAAGACACTTTGGATGGGTTGA [1d4]
Second: TATACTTGTCGTAAGACACTTTGGATGGTTA [3d945]
The fraction ligated of the first is higher: 0.791 for the first, 0.0396 for the second.

First: TATACTTGTCGTAAGACACTTTGGATGGTTG [3d946]
Second: TATACTTGTCGTAAGACACTTTGGATGGTTGA [2d87]
The fraction ligated of the first is lower: 0.0597 for the first, 0.127 for the second.

First: TATACTTGTCGTAAGACACTTTGGGGGTTGA [3d938]
Second: TATACTTGTCGTAAGACACTTTGGTGGGTTA [3d940]
The fraction ligated of the first is higher: 0.0526 for the first, 0.00259 for the second.

For TATACTTGTCGTAAGACACTTTGGTGGGTTG [3d941], the fraction ligated was 0.0139.
